Test results published in patent US8043804 (TRUSTEES OF COLUMBIA UNIVERSITY IN THE CITY OF NEW YORK, dated 2011).
Each block holds one binder with its values, some of them ahead of it.

How the values were obtained:
[1] = biological target: T1, ^35S-labeled in vitro-translated DBC1 (human, UniProt Q8N163 1-923, labelled by incorporation of ^35S-Methionine); assay: GST pull-down, autoradiography
T1 construct: also called ^35S-DBC1; pCIN4-DBC1 product
Description: (§1) Next, whether SIRT1 binds DBC1 in vitro was tested. […] The N-terminus of DBC1 as the SIRT1 binding domain was identified (FIG. 7). Since the enzymatic core sequence represents the most conserved region of mammalian SIRT protein family, whether DBC1 interacts with other members of this family was determined. Flag-tagged derivatives of the seven human SIRT polypeptides (SIRT1-7) were each expressed in 293 cells and extracts of the transfected cells were immunoprecipitated with the α-Flag antibody. […] Although similar expression levels for all seven Flag-SIRT polypeptides were detected, none of the other SIRT proteins (SIRT2, SIRT3, SIRT4, SIRT5, SIRT6 and SIRT7) were able to co-immunoprecipitate DBC1 (lanes 3-8, FIG. 2d).

[2] = biological target: T2, SIRT1 (Silencing mating type information regulator 2 homolog) (human, UniProt Q96EB6 2-747); assay: affinity-purified SIRT1 complexes from HeLa extracts, Western blot
T2 construct: Endogenous protein of HeLa and U2OS cells, or expressed from a vector without a stated tag in H1299 cells; also called endogenous SIRT1; Sir2
T2 sequence (looked up): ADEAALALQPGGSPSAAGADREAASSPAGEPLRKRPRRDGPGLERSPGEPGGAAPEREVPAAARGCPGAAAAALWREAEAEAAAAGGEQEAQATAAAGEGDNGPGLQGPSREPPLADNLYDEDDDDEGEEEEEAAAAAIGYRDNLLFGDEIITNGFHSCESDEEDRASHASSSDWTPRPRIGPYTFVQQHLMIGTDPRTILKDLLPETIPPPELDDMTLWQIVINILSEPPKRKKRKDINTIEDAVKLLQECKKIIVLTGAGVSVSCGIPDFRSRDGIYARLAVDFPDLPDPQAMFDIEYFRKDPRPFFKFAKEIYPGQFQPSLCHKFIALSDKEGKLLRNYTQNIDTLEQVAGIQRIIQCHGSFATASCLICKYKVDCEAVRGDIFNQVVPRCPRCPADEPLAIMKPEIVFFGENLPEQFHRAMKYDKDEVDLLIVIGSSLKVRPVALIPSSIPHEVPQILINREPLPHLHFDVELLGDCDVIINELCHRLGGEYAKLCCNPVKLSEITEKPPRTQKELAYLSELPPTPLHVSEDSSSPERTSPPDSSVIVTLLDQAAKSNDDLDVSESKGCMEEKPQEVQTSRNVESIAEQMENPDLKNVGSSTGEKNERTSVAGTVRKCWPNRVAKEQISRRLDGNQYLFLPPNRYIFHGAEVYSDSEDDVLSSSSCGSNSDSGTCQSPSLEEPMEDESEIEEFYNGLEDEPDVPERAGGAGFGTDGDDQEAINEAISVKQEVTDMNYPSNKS
Description: Figure 1: FIG. 1. Identification of DBC1 as a major component of the SIRT1 complexes in human cells. (a) Colloidal-blue staining of affinity-purified SIRT1 complexes from HeLa extracts with the α-SIRT1 antibody column (lane 2) and a control elute from the same extract with a control antibody column (lane 3). Specific SIRT1 interacting proteins were analyzed by mass spectrometry. (b) Western Blot of input (lane 1), control IP (lane 2) and α-SIRT1 antibody IP (lane 3) for the known SIRT1 interacting protein 14-3-3σ (lower panel) and SIRT1 (upper panel) to verify specificity of the analyzed SIRT1 complex. (c) Schematic representation of the DBC1 protein.

[3] = biological target: T3, DBC1 (Deleted in Breast Cancer 1) protein (human, UniProt Q8N163 1-923); assay: anti-Flag immunoprecipitation from transfected 293 cells, Western blot for endogenous DBC1
T3 construct: Endogenous protein of HeLa, U2OS and 293 cells (about 140 kDa band), or expressed from a vector without a stated tag in H1299 cells; also called endogenous DBC1
T3 sequence (Q8N163 whole entry): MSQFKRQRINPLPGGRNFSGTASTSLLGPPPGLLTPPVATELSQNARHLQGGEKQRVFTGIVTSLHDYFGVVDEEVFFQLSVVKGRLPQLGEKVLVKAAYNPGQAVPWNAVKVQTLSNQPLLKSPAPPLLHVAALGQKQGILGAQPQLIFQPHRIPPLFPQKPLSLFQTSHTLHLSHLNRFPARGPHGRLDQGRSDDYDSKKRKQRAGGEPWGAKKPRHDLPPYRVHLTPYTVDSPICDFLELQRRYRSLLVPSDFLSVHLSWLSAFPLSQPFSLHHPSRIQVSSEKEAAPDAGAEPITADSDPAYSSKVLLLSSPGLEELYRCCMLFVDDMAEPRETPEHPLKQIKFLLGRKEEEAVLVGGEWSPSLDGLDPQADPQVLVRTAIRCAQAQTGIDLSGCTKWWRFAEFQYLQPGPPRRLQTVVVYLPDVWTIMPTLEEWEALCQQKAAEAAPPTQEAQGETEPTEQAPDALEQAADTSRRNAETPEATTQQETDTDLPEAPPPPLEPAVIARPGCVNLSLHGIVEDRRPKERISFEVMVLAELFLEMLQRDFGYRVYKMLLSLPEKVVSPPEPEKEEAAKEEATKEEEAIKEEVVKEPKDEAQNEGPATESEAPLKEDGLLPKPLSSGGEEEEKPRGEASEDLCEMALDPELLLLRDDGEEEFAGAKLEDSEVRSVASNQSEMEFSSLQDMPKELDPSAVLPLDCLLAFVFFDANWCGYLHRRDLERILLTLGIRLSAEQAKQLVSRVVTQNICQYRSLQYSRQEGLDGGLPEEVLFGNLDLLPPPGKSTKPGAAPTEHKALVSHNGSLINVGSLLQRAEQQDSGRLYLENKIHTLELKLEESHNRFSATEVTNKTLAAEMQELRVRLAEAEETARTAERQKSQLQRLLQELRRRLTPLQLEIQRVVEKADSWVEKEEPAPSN
Description: as §1

[4] = biological target: T3, DBC1 (Deleted in Breast Cancer 1) …; assay: M2 immunoprecipitation of Flag-tagged SIRT family members from 293 cells, Western blot (FIG. 2d)
Description: as §1

T1 sequence (Q8N163 whole entry): as above

B1: GST-SIRT1-CT (other, human, UniProt Q96EB6 500-747, looked up)
chain: LCCNPVKLSEITEKPPRTQKELAYLSELPPTPLHVSEDSSSPERTSPPDSSVIVTLLDQAAKSNDDLDVSESKGCMEEKPQEVQTSRNVESIAEQMENPDLKNVGSSTGEKNERTSVAGTVRKCWPNRVAKEQISRRLDGNQYLFLPPNRYIFHGAEVYSDSEDDVLSSSSCGSNSDSGTCQSPSLEEPMEDESEIEEFYNGLEDEPDVPERAGGAGFGTDGDDQEAINEAISVKQEVTDMNYPSNKS
notes: domain: C-terminal; also called C-terminus of SIRT1; C-terminal domain of SIRT1; not shown: glutathione S-transferase (GST) fusion partner
binding result [1]: no binding

B2: 14-3-3σ (other, human, UniProt P31947 1-248, looked up)
chain: MERASLIQKAKLAEQAERYEDMAAFMKGAVEKGEELSCEERNLLSVAYKNVVGGQRAAWRVLSSIEQKSNEEGSEEKGPEVREYREKVETELQGVCDTVLGLLDSHLIKEAGDAESRVFYLKMKGDYYRYLAEVATGDDKKRIIDSARSAYQEAMDISKKEMPPTNPIRLGLALNFSVFHYEIANSPEEAISLAKTTFDEAMADLHTLSEDSYKDSTLIMQLLRDNLTLWTADNAGEEGGEAPQEPQS
binding result [2]: binds

B3: Flag-SIRT7 (enzyme, human, UniProt Q9NRC8 1-400, looked up)
chain: MAAGGLSRSERKAAERVRRLREEQQRERLRQVSRILRKAAAERSAEEGRLLAESADLVTELQGRSRRREGLKRRQEEVCDDPEELRGKVRELASAVRNAKYLVVYTGAGISTAASIPDYRGPNGVWTLLQKGRSVSAADLSEAEPTLTHMSITRLHEQKLVQHVVSQNCDGLHLRSGLPRTAISELHGNMYIEVCTSCVPNREYVRVFDVTERTALHRHQTGRTCHKCGTQLRDTIVHFGERGTLGQPLNWEAATEAASRADTILCLGSSLKVLKKYPRLWCMTKPPSRRPKLYIVNLQWTPKDDWAALKLHGKCDDVMRLLMAELGLEIPAYSRWQDPIFSLATPLRAGEEGSHSRKSLCRSREEAPPGDRGAPLSSAPILGGWFGRGCTKRTKRKKVT
notes: not shown: Flag tag
binding result [3]: no binding

B4: Flag-SIRT2 (enzyme, human, UniProt Q8IXJ6 1-389, looked up)
chain: MAEPDPSHPLETQAGKVQEAQDSDSDSEGGAAGGEADMDFLRNLFSQTLSLGSQKERLLDELTLEGVARYMQSERCRRVICLVGAGISTSAGIPDFRSPSTGLYDNLEKYHLPYPEAIFEISYFKKHPEPFFALAKELYPGQFKPTICHYFMRLLKDKGLLLRCYTQNIDTLERIAGLEQEDLVEAHGTFYTSHCVSASCRHEYPLSWMKEKIFSEVTPKCEDCQSLVKPDIVFFGESLPARFFSCMQSDFLKVDLLLVMGTSLQVQPFASLISKAPLSTPRLLINKEKAGQSDPFLGMIMGLGGGMDFDSKKAYRDVAWLGECDQGCLALAELLGWKKELEDLVRREHASIDAQSGAGVPNPSTSASPKKSPPPAKDEARTTEREKPQ
notes: also called F-SIRT2; not shown: Flag tag
binding result [3]: no binding

Results, then the binder that gave them:

binding result [4]: binds
B5: Flag-SIRT1 (enzyme, human, UniProt Q96EB6 1-747, looked up)
chain: MADEAALALQPGGSPSAAGADREAASSPAGEPLRKRPRRDGPGLERSPGEPGGAAPEREVPAAARGCPGAAAAALWREAEAEAAAAGGEQEAQATAAAGEGDNGPGLQGPSREPPLADNLYDEDDDDEGEEEEEAAAAAIGYRDNLLFGDEIITNGFHSCESDEEDRASHASSSDWTPRPRIGPYTFVQQHLMIGTDPRTILKDLLPETIPPPELDDMTLWQIVINILSEPPKRKKRKDINTIEDAVKLLQECKKIIVLTGAGVSVSCGIPDFRSRDGIYARLAVDFPDLPDPQAMFDIEYFRKDPRPFFKFAKEIYPGQFQPSLCHKFIALSDKEGKLLRNYTQNIDTLEQVAGIQRIIQCHGSFATASCLICKYKVDCEAVRGDIFNQVVPRCPRCPADEPLAIMKPEIVFFGENLPEQFHRAMKYDKDEVDLLIVIGSSLKVRPVALIPSSIPHEVPQILINREPLPHLHFDVELLGDCDVIINELCHRLGGEYAKLCCNPVKLSEITEKPPRTQKELAYLSELPPTPLHVSEDSSSPERTSPPDSSVIVTLLDQAAKSNDDLDVSESKGCMEEKPQEVQTSRNVESIAEQMENPDLKNVGSSTGEKNERTSVAGTVRKCWPNRVAKEQISRRLDGNQYLFLPPNRYIFHGAEVYSDSEDDVLSSSSCGSNSDSGTCQSPSLEEPMEDESEIEEFYNGLEDEPDVPERAGGAGFGTDGDDQEAINEAISVKQEVTDMNYPSNKS
notes: Expressed in 293 or H1299 cells, immunoprecipitated with M2 anti-Flag beads; also called F-SIRT1; Flag-tagged SIRT1; not shown: Flag tag

binding result [1]: no binding
B6: GST-SIRT1-NT (other, human, UniProt Q96EB6 1-210, looked up)
chain: MADEAALALQPGGSPSAAGADREAASSPAGEPLRKRPRRDGPGLERSPGEPGGAAPEREVPAAARGCPGAAAAALWREAEAEAAAAGGEQEAQATAAAGEGDNGPGLQGPSREPPLADNLYDEDDDDEGEEEEEAAAAAIGYRDNLLFGDEIITNGFHSCESDEEDRASHASSSDWTPRPRIGPYTFVQQHLMIGTDPRTILKDLLPETI
notes: domain: N-terminal; also called N-terminus of SIRT1; N-terminal domain of SIRT1; not shown: glutathione S-transferase (GST) fusion partner
